Target: in vitro-translated 35S-labeled HPV16 E6 (human papillomavirus type 16, UniProt P03126, 35S-labeled cysteine or methionine)
Test: GST pull-down of 35S-labeled in vitro-translated HPV-16 E6

Binder: ILVEKDRFVNDYDKDNDGRLDPQELLPWVVPNNQGI (other) [GSTSD7EF5]
- binding result: no binding

Source: patent US5989804, “E6 binding proteins” (New England Medical Center Hospitals, Inc., dated 1999)
